The chains are these.
T1: IFF05588
T1 chain: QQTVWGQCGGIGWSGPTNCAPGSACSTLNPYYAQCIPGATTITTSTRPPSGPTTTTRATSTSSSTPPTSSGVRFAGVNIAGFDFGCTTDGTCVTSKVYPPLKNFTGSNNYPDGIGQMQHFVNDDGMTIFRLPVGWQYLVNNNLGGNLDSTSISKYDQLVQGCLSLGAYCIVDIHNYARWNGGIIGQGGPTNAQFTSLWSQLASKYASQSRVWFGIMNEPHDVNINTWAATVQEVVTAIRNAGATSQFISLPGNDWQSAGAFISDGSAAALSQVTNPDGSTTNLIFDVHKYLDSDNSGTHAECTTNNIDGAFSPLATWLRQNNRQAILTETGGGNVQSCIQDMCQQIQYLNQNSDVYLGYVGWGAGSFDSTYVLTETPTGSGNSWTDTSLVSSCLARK

B1: IFF21368 (protein)
chain: QLSKPVMNPPVPFSDLDPTLFKYLKSTPHNRDQWGWGWLPARCKAIADQQGLNAYDIDVYNVHYSDCNQAWVMCRHHLSPLSIDTMAENFGRIPVRMRNFVRVQFALPQKDSSFGGATFSDLGDILWYGDVSKTLRFWIHEAGHTIDRNINPGSNDDYSKSSAWLNEYNKDGFICDDYAKNNAAENFAQEVIVALFDKVVPGGLGSVSPNWNSIFHQYATVQSKLGDILIPGGTCNRKFADDTIVCMGPAANCNSKANAKFRLKADKTQDAAIVAASDNPPIEDLFEVEE
B2: IFF21377 (protein)
chain: KRLDKPALTPDLGYLLQGSVDNLHPTHSTWDKWGDGWIPEDCKSMAQNPNLNLNLNPSDFEVYNVHYDDCGDAWVLCRHKDSPVDLVTTVDIFGRLPVRMRDWVRHVMTVPGNDYAFNLNGNIVFSGRTSTNMDVAIHETGHSLDLLKAYGEVLSSSQTWIDNYNQDSNVPDNYAQSSQIENVAQNTVVSVFDKIVPGGFGSVQPNWHNIFHQYATLKSKAGDLILPGGQCDRRLKDSSPIPMDSNANEQGLLSWKPRTSFVNTYNNIVTNFEPFNTAEHCKESFS
B3: IFF21331 (protein)
chain: ALDKPIIDPEFPGGGLASLGQGLLDNLAPTQSTYADWEAGFIPQDCKTIAEGNSLSPLDIIPFNITYTDCSDPWIFCRHKDSPLSEVDMIDLFGRMPVGMRSFIRHIISIPGDKSAGSNGDNVQMNGDVDITVFIHETGHSLDSHGFDASYGVPFSTGQVWTDNYNLDSAVTDSYAQSSQQENFAQETVVALYDKVVPGGVGTIQPNWQAIQHQYETIQGYAGGIIIPGGTCTNRLPNSPAVPMSDSAKYRVNMAHKPDVSLSNYVTEIKSIPMEPIMKLTHYDAAGRPIGKSTIDLST
B4: IFF21357 (protein)
chain: GNPDKPEVNPHIPYDRLESDLRNNLHPTQSTWDYWGAGWIPQGCKDLANTYHLNPADFTVFNVHYTDCSASWTFCRHKDAGASEIDMIDMLGRLPVRMRSYTRHLMATPGLNDGAAAWTWSTGDTVVESAPNLATLVHEVSHSLDWHALPQYQQPFSSSSIWQDNYNQDSATPTGYGRTNWMENFAETGMVGVYDKVVPGGIGNIESNWNSIFHQYATYQGYLGDKIIPGGSCANRFDDTAPVTMSNSAKFRVTSPKPETGIDFAGKNITQIIPSKEVEGLFIKG
B5: IFF21353 (protein)
chain: NLDKPVIQPNFPSLAPGLMSHLAPTHSTWDDWGAGWIPQDCKSMVQGAGFSPNDIIPFNIHYDDCGQTWTFCRHKNSPLSELQILDMFGRLPVRMRSFVRHLVFVPGNRSAGSNGDNILVVGDGDITLFAHEIGHSLDSHAFDPSYGVPFSTGNVWVSNYNLDSAVSDSYAQTSQQENFAQETVISLFDKVVPGGIGTIQPNWQAIFHQYATLQGYIGNVIIPGGTCTHRLTDSPPVPMSGSAKSRRGLGPKPEVSLSPEVKEIEAIPMESSITMTSFDEHGKPNGTYVIHLK
B6: IFF21364 (protein)
chain: QLDKPALTDNLDYLLDGNVANLPSNGGPYWGKWEDGLIPADCKSIAESQGLNPTDFEVYDIFFDDCQDGWSFCRHKDSSDSFETLVDTFGRVPVRMRSWVRHILTIPGNNWAFNSNGNIAFSGTTSSNLDVALHETGHSLDLLGAYGDGALSSSQEWEDAYNADSNVPDNYAQSNQVENVAQNTVVGIYDKVVPGGFPGVQPNYANIQNQYTLLQDKAGEQIIPGGTCDRHLENSDTVSMSGSSSKRDVRAAKARAASHDSALKGKYSNIVKDFKPFNSQDFHH
B7: IFF21362 (protein)
chain: GSPDKPEMNPAFDYGRFEAGLRDNLHPTHSTWDYWGPGWIPQSCKDIATSHGLSPNDFTIFNVHYDDCQEGWTFCRHKDAGASEIDMIDIFGRAPVHMRSFIRHLVATPGLHDGAAAFTFSNGDCVVESAPDLSVMLHEMSHSLDWHALPQYPSPFSSSNEWQSNYAQDSNTPTAYGRTNWLEDFAEAGKVGVFDKVVPGGFGSVAGNWGQVFHQYATYQGYLGDTILPGGTCDKRFPNSETVPMAGNSKRMAADLGEKPDNTIKADNMTLIQMRPEIEGQVSICEHQH
B8: IFF21356 (protein)
chain: GNPDKPEVNPHIPYDRLESDLRNNLHPTQSTWDYWGAGWIPQGCKDLANTYHLNPADFTIFNVHYTDCSASWTFCRHKNAGASEIDMIDIFGRLPVHMRSYIRHLVATPGLNDGAAAWTWSSGDCVVESAPNLATLVHEVSHSLDWHALPQYQQPFSSSSIWQDNYNQDSATPTGYGRTNWMENFAETGMVGVYDKVVPGGIGNIEPNWNAIFHQYATYQGYLGDKIIPGGSCANRFDDTPPVAMSNSAKVKVNSPKPGTRIDFAGTNITQIIPSKEVEGLYIKG
B9: IFF21363 (protein)
chain: QLDKPVIDPEFPSGALDQGLNDHLRAPGSSWDAWEEGWIPEDCKNMIEGTEFSVQDITPFNIHYDDCEDPWVFCRHKDSPLSEDYIVDAFGKMPVRFRSFVRHMLFVPGTESAGSSGDNVQMNGDLPITVFIHETAHSFDGHHGLPDIEGGFSASQAWLDAYNADSAVTDDYGQTSQAENFAQQTVVALFDSNVPDGVASIQPSWQSIENQFRLIQDRAADILRPDGTCTSRLENSAPVEKGGSARLRPSASTKPDVSLKGKIKVIEPVPMGAEMEMAQYDASGKVVGTKVVKVGGRE
B10: IFF21371 (protein)
chain: QLDKPLVVPAMPALDAGLLKHLAAPAYTTSQWEWGWIPQWCKDEAVSEKLSPYDIEVFNIHYNDCKDVWIFCRHNAAQASQKDMIDIFGRMPVRTRQFVRHILAVPGTISAGSSGDNIALRGTGPNLISVLIHEAAHSMDSHAVDSLSKPFHNTAEWLAAYKADSAISDDYAQTSQSENFAQTVVIAVFDKVVPGGIGSVQPSWAAIKNQYTTAQKWLGDLIIPGGTCTARLENSPVASMGRASGNGARMRRRARGGKPDVSLSKDTKVIPAIAGKKIHITSFAQ
B11: IFF21369 (protein)
chain: QLPKPIMSPAVPFDHTDPILYQHLGSTPSTYDQWGWGWLPLRCKAVAEARGLNPYDVNVYNVHYEDCDQAWVMCRHHGAQVSLDQMIDNFGRLPVRLRNIVRHQFAVPGEGLGAYTYSDLGDIVFTGDIGHLLRFWVHEAGHAVDRNINPSQGDYSSSQAWINEYNKDGYICDEYAKNNMAENFAQEVIVALFDKVVPGGIGTIVPNWNDIFHQYATVQAVMGDMLIPGGFCNRHFADDTIVCMGPAAGCENSKRDYEGLNSTETYTAEAEEPTVCTLA
B12: IFF21355 (protein)
chain: GNPDKPEVSPRIPYDRLESGLRNNLHPTQSTWDYWGAGWIPQGCKDLAKTYHLNPADFTIFNVHYTDCSASWTFCRHKDAGASEIDMIDIFGRLPVRMRSYIRHLMATPGLNDGAAAWTWSSGDCVVESAPNLATLVHEVSHSLDWHALPQYQQPFSSSSIWQDNYNQDSATPTGYGRTNWMENFAETGTVGVYDKVVPGGIGNIEPNWNAIFHQYATYQGYLGDKIIPGGSCANRFEDTPPVAMSNSVKFKITSPKPEIGIDFVGKNITQIIPSKEVEGLYIKG

The target in the data set is T1, IFF05588.
On to B1, for which the Relative late peak area (centered, scaled, averaged over 5, 10 and 15 min) is -1; the Relative late peak area (centered, scaled, averaged over doses, 24 h; sample diluted 1-fold) is -1.44.

Regarding B2, the Relative late peak area (centered, scaled, averaged over 5, 10 and 15 min) was -0.99; the Relative late peak area (centered, scaled, averaged over doses, 24 h; sample diluted 1-fold) was -1.45.

Turning to B3, the Relative late peak area (centered, scaled, averaged over 5, 10 and 15 min) is -0.86; the Relative late peak area (centered, scaled, averaged over doses, 24 h; sample diluted 1-fold) is -0.21.

For the protein B4, the Relative late peak area (centered, scaled, averaged over 5, 10 and 15 min) was -1.05; the Relative late peak area (centered, scaled, averaged over doses, 24 h; sample diluted 1-fold) was -1.49; the “modification of IFF05588 (reverse phase chromatography, 5 to 15 min)” value is “All samples containing proteins related to IFF05497 except seven (IFF21355, IFF21358, IFF21356, IFF21361, IFF21370, IFF21357 and IFF21353) are able to modify IFF05588 under these reaction conditions”.

Regarding B5, the Relative late peak area (centered, scaled, averaged over 5, 10 and 15 min) is -1.06; the Relative late peak area (centered, scaled, averaged over doses, 24 h; sample diluted 1-fold) is -1.31; the Relative late peak area (reverse phase chromatography, 24 h) is 0.25; the “modification of IFF05588 (reverse phase chromatography, 5 to 15 min)” value is “All samples containing proteins related to IFF05497 except seven (IFF21355, IFF21358, IFF21356, IFF21361, IFF21370, IFF21357 and IFF21353) are able to modify IFF05588 under these reaction conditions”.

In the case of B6, the Relative late peak area (centered, scaled, averaged over 5, 10 and 15 min) is -0.57; the Relative late peak area (centered, scaled, averaged over doses, 24 h; sample diluted 2-fold) was -0.28; the Relative late peak area (reverse phase chromatography, 24 h) turned out to be 0.49.

Take B7: the Relative late peak area (centered, scaled, averaged over 5, 10 and 15 min) was -0.99; the Relative late peak area (centered, scaled, averaged over doses, 24 h; sample diluted 1-fold) was -1.52; the Relative late peak area (reverse phase chromatography, 24 h) was determined as 0.23; the “modification of IFF05588 (reverse phase chromatography, 24 h)” value is “All samples containing proteins related to IFF05497 except one (IFF21362) are able to modify IFF05588 under these reaction conditions”.

Consider B8, for which the Relative late peak area (centered, scaled, averaged over 5, 10 and 15 min) is -1.04; the Relative late peak area (centered, scaled, averaged over doses, 24 h; sample diluted 1-fold) is -1.52; the “modification of IFF05588 (reverse phase chromatography, 5 to 15 min)” value was “All samples containing proteins related to IFF05497 except seven (IFF21355, IFF21358, IFF21356, IFF21361, IFF21370, IFF21357 and IFF21353) are able to modify IFF05588 under these reaction conditions”.

As for B9, the Relative late peak area (centered, scaled, averaged over 5, 10 and 15 min) is -0.43; the Relative late peak area (centered, scaled, averaged over doses, 24 h; sample diluted 2-fold) was -0.13; the Relative late peak area (reverse phase chromatography, 24 h) came out at 0.3.

Regarding B10, the Relative late peak area (centered, scaled, averaged over 5, 10 and 15 min) is -0.95; the Relative late peak area (centered, scaled, averaged over doses, 24 h; sample diluted 1-fold) is -1.12.

For B11, the Relative late peak area (centered, scaled, averaged over 5, 10 and 15 min) was -1; the Relative late peak area (centered, scaled, averaged over doses, 24 h; sample diluted 1-fold) was -1.42.

In the case of B12, the Relative late peak area (centered, scaled, averaged over 5, 10 and 15 min) was -1.02; the Relative late peak area (centered, scaled, averaged over doses, 24 h; sample diluted 1-fold) is -1.52; the “modification of IFF05588 (reverse phase chromatography, 5 to 15 min)” value was “All samples containing proteins related to IFF05497 except seven (IFF21355, IFF21358, IFF21356, IFF21361, IFF21370, IFF21357 and IFF21353) are able to modify IFF05588 under these reaction conditions”.

(Values after US20250051821.)
